Measurements published in US20250084152A1 (DUKE UNIVERSITY, published 2025).

Legend:
Experiment in all cases: ELISA on LAH peptide
[1] = molecular target: B/MY04 LAH peptide (LAH-Fc fusion protein) (Influenza B virus B/Malaysia/2506/2004, UniProt P03461 425-480)
[2] = molecular target: H3/X31 LAH peptide (LAH-Fc fusion protein) (Influenza A virus H3N2 A/Aichi/2/1968, UniProt P03436 421-475)
[3] = molecular target: H5/VN04 LAH peptide (LAH-Fc fusion protein) (Influenza A virus H5 A/Vietnam/1203/2004, UniProt P87506 416-472)
Chain of H5/VN04 LAH peptide (LAH-Fc fusion protein) (P87506 416-472 limits assumed): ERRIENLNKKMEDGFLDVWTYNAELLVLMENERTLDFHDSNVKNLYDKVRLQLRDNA

Measured: binding result

Chain of H3/X31 LAH peptide (LAH-Fc fusion protein) (P03436 421-475 limits assumed): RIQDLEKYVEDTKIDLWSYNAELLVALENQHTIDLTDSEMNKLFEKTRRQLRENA
Chain of B/MY04 LAH peptide (LAH-Fc fusion protein) (P03461 425-480 limits assumed): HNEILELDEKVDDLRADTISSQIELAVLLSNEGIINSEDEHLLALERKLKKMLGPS

B1: S1V2-72 (antibody, V domains shown)
VH: QVQLVQSGAELKKPGASVKVSCKASGYTFTGNYIHWMRQVPGQGLEWMGWINPRTGDTHHAQKFQGRVDMTRDTSINTAYLELTRLESDDTALYYCARCVFATSQFDPWGQGTLVTVSS
VL: QSALTQPASVSGSPGQSITISCTGTNSDIGSHNLVSWYQQHPGKAPKVMIYDDSKRPSGVSNRFSGSKSGSTASLTISGLQSEDEADYYCCSYAGSSNWVFGGGTKLTLL
no binding: [1] | [2] | [3]
